Experimental data published in article PMC5687611.

Assays:
[1] = biological target: L3B3-hPD-L1 phage clone (displayed on M13 phage) (human) (UniProt Q9NZQ7); assay: ELISA; inhibition phage ELISA: phage displaying hPD-L1 variants incubated with 1.6 µM non-biotinylated soluble hPD-1 for 1 h before adding to plates with captured biotinylated hPD-1
[2] = biological target: L3C7-hPD-L1 phage clone (displayed on M13 phage) (human) (UniProt Q9NZQ7); assay: as above

inhibition rate at 1.6 µM soluble hPD-1 [1]: 86.7%
inhibition rate at 1.6 µM soluble hPD-1 [2]: 82.6%
Substance: soluble non-biotinylated hPD-1 (residues 33-150, C93S) (from UniProt Q15116 33-150) (domain or fragment)
